# Assay results from the RNAGym collection of RNA variant scans (doi:10.1073/pnas.2313332121).
# B1: TPR t1 (parent)
# chain: GACCAAUCUGCCCUCAGAGCUCGAGAACAUCUUCGGAUGCAGAGGAGGCAGGCUUCGGUGGCGCGAUAGCGCCAACGUCCUCAACCUCCAAUGCAUCCCACCACAUGAUGAUGCCUGAAGAGCCUUGGUUUUUUG
# Variants of: B1
# Assay: polymerase ribozyme fitness, log enrichment relative to wild type (log ratio); higher = more active; in vitro selection for triplet polymerase activity
# Summary of the method: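 In triplicate, a single round of in vitro selection was run on each mutant library, PCR-built and transcribed, covering one subunit of a heterodimeric triplet polymerase ribozyme. Frozen incubation at −7 °C followed annealing with a biotinylated primer, partner subunit and triplets, and extended constructs were then gel-excised, streptavidin-captured and taken through RT-PCR. Fitness is the logarithm of genotype enrichment over wild-type enrichment, from inverse-variance-weighted replicate averages of Illumina-sequenced inputs and outputs. […] only genotypes with ≥10 input reads and ≥1 read per output were kept.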
row,Variant,polymerase ribozyme fitness (log ratio)
1,A18U U59G G60A,-4.56
2,C20G G71A A83C,-5.59
3,C20U G110U,-3.13
4,C20A U38A G48A C104A A121U,-6.26
5,C20U U21C U116C,-2.85
6,C20G C62U,-3.29
7,G19C G52A C88A U112G C114A,-6.11
8,G19C U78C G110C,-5.42
9,C20G G35U A95C G117U,-4.02
10,C20A G45U C53G G63C C88U A111U U125G,-5.87
11,C20U G61A C124A G135C,0.689
12,G19U G110C,-5.06
13,C20G C49A U96G U112G C115G C123A,-7.57
14,C20U G42A U106A G113C,-2.24
15,G19U A74U G113A,-2.19
16,U21C A29U A84C U112A A119G G120C,-0.885
17,U21C A84C C124G U131C,1.43
18,G19A G77C,-2.48
19,C20G C114G C115U,-6
20,G19C A41C C70G G120U,-6.52
21,C20U G48U,-2.05
22,C20A A46U G52A,-3.85
23,C20A G63A C94A U112A,-2.57
24,C20U A26U U32C G69U,-3.17

row,Variant,polymerase ribozyme fitness (log ratio)
1,C20U A83G C101A G117U,-5.42
2,G19U G39C C53U C124A,-2.93
3,A18U U55G C82G G120A,-3.38
4,G19A G48U C53G G58U U59A,-3.69
5,C20A U106A C124A,-1.85
6,C20G A37U C62G C70U U112A,-6.02
7,C20U U112A,0.887
8,C20U U112C,0.258
9,C20A C98G,-5.84
10,C20U C28A,-3.79
11,C20G C40U C124U U126C,-4.35
12,G19C G45A U78C C82G U112C,-1.42
13,C20G C115U,-4.25
14,C20U C62U U92A C97U,-5.74
15,C20A G48U,-3.37
16,C20A C53U C72G U126G,-3.99
17,G19A C73A A105U C114U U116G,-5.41
18,U21A G71A C88U G93A,-2.14
19,G19U C89U G120C,-2.25
20,U21A G60U,-0.289
21,A18U G44A U54A C86U U106A,-5.25
22,U21A G57U C85U G120U,-2.48
23,C20A G23A G36A G48A G113A,-7.55
24,U21A G60A A90G,-0.182

row,Variant,polymerase ribozyme fitness (log ratio)
1,C20U A37G C102A,-3.43
2,C20G G60A,-3.55
3,C20U C28A G93U G110C,-4.8
4,C20G U133G,-3.81
5,A18U G36U U59C C97G,-4.79
6,C20G C62U U125A,-5.73
7,C20U C72U U78A A111G C123G G135C,-3.01
8,C20A G36A A84G A118G,-5.67
9,C20A C73G,-3.25
10,C20G C89U U109G U132C,-3.87
11,C20G C123A,-4.02
12,C20U A95C,-2.07
13,C20A A84U A90G C98G U109A A121U,-3.83
14,C20U C49U C56G U78G U81A C86U U133G,-3.51
15,A18U C49U A68U U92A U96A G110C,-7.53
16,C20U G39U C89U A119U U130G,-4.97
17,C20U G45U,-2.33
18,C20U G45A,-2.57
19,G19U G69A U106C C114A G120C,-2.51
20,G19U A105U U106A G113C,-0.75
21,C20A U32G G35C U59G G61A A74C,-4.63
22,G19C G93A C104U U112C,-0.693
23,C20U C73G C114G,-1.71
24,C20U C64U C114U A118G U131A,-0.511

row,Variant,polymerase ribozyme fitness (log ratio)
1,G19U C53G,-2.76
2,C20A G122A,-3.47
3,C20A A41C C82A,-4.5
4,C20A U32C C56U G57U G60U C62G,-5.9
5,C20U A95C U129A,-2.94
6,A18U A46G G52A A118U,-2.9
7,C20A C49U G61U C85A,-3.53
8,C20U U78C C124G,0.066
9,C20U A91G,-2.03
10,G19A C62A U78A U81A C101G G113U U130A,-6.38
11,C20U C73U,-1.6
12,G19U A50U C124G,-2.97
13,C20A G120C,-1.75
14,C20A G120U,-2.44
15,C20U U32G,-6.33
16,C20U U33A,-5.51
17,G19U C101A,-4.08
18,A18U G61C G120A,-4.67
19,C20U A27C A84U C123A,-5.42
20,G19U U54G A68G C70G G117C,-5.56
21,A18U C49G A91G,-3.84
22,U21C A37C U81A,-3.15
23,C20A A29G G36U,-6.08
24,C20G U32A C53G U54C G57U C97G G113A,-6.61

row,Variant,polymerase ribozyme fitness (log ratio)
1,G19C C101A G120U C124A G135C,-3.1
2,C20A G57U C97A C115A U116C,-6.48
3,C20G A43G C89A,-3.78
4,C20A G60A,-2.83
5,C20A G71A U129G,-5.06
6,C20A G61A,-2.67
7,C20U C114G,-1.55
8,C20G G57C,-4.41
9,G19U A43U G60C C82G,-3.71
10,C20U U129A,-2.67
11,G19A G60A C114A,-1.62
12,G19A G47A C88U,-2.72
13,C20U U38G C72U C102U,-5.01
14,A18U G42U,-2.23
15,C20A C49A U81A C104U G120C U133A G135U,-2.32
16,C20A U54A U131G,-3.27
17,U21C A27G C123G,-0.817
18,C20A G45C,-3.43
19,C20G C124A,-2.2
20,U21C A41U G120A,-0.65
21,C20U G36C C89G,-3.93
22,C20G C76U,-3.75
23,A18U G60U,-1.19
24,U21C A41G G44A C56U C98U U112A,-1.55

row,Variant,polymerase ribozyme fitness (log ratio)
1,C20G C99G G110C,-7.02
2,U21A C62U U92C U116C A119G,0.3
3,C20U A43G U78G U87A C89G,-5.4
4,A18U U87G G120A,-1.48
5,G19C G57A G69U C85G,-4.01
6,C20A C64U U78C U96A C102G C114A,-6.83
7,G19C G63A U87C,-3.24
8,G19U G45U A111C,-4.74
9,G19A C72U,-3.79
10,A18U C114U,-3.74
11,C20A C40A C72U C73U,-4.3
12,C20U C85A,-3.94
13,A18U C31U,-5.66
14,A18U A46U C97U A103U G120U C123G,-6.88
15,C20A U32A C70U G93C,-6.8
16,G19U U55G C70U,-3.42
17,G19A C40U G45C G61C C124A,-3.57
18,G19C C22A C53G U59G C123A,-5.66
19,U21A G39U G48A A74U U78G,-2.09
20,A18U G63A G110U,-6.24
21,C20G,-3.76
22,C20A,-2.6
23,C20U,-1.26
24,U21A A41C A90C G93A,-4.16

row,Variant,polymerase ribozyme fitness (log ratio)
1,C20U C73U G110U G120U A121G,-3
2,C20G C56U C82A G113C,-2.04
3,G19A C114A,-1.55
4,C20U G77U,-1.15
5,C20U C62A,-2.35
6,C20G G71C,-5.08
7,G19U C88A,-2.97
8,C20U C40U G60U C82A U96A C124A,-1.54
9,U21A C49A C73A C115A U130G,0.139
10,C20G G93C,-4.4
11,C20A C114A,-2.56
12,A18U A111G U129A,-4.75
13,C20A G63C,-3.31
14,G19A G77U U81A C114A,-1.67
15,A18U U30A A37G A108U,-3.64
16,U21A U38A G42A G44A U55G,-2.99
17,C20A C123G,-0.867
18,A18U A75U C76G U129G,-5.7
19,G19C G36A G48A C82U C124A,-3.64
20,A18U C89A U133A,-2.21
21,U21A G117U,-1.55
22,C20A A46U,-4.55
23,C20A C64G C114A,-7.24
